pKd: −log10 of the molar value. Read-outs that look alike come from different tables or passages of the source.
Key:
[1] = target: ErbB2 on cells (SKBR3 high, SK-OV-3 moderate, MCF7 low expression) (human) (UniProt P04626); test: cell-based or functional assay
[2] = target: ErbB2 on cells (SKBR3 high, SK-OV-3 moderate, MCF7 low expression) (human) (UniProt P04626); test: 3.0×10^11 cfu on SKBR3 cells 2 h at 37 °C, stripping buffer wash titered on E. coli TG1
[3] = target: ErbB2 on cells (SKBR3 high, SK-OV-3 moderate, MCF7 low expression) (human) (UniProt P04626); test: 5.0×10^11 phage on ErbB2 expressing SKBR3 cells at 37 °C, low pH glycine eluate titered on E. coli TG1
[4] = target: ErbB2 on cells (SKBR3 high, SK-OV-3 moderate, MCF7 low expression) (human) (UniProt P04626); test: FACS on SKBR3 cells, anti-M13 and streptavidin-PE detection
[5] = target: ErbB2 on cells (SKBR3 high, SK-OV-3 moderate, MCF7 low expression) (human) (UniProt P04626)
[6] = target: ErbB2 on cells (SKBR3 high, SK-OV-3 moderate, MCF7 low expression) (human) (UniProt P04626); remark: listed apart in the source
[7] = target: recombinant ErbB2 extracellular domain (UniProt P04626); test: SPR (BIAcore)

Chain of fd-F5 phage (multivalent) (P03661 19-424): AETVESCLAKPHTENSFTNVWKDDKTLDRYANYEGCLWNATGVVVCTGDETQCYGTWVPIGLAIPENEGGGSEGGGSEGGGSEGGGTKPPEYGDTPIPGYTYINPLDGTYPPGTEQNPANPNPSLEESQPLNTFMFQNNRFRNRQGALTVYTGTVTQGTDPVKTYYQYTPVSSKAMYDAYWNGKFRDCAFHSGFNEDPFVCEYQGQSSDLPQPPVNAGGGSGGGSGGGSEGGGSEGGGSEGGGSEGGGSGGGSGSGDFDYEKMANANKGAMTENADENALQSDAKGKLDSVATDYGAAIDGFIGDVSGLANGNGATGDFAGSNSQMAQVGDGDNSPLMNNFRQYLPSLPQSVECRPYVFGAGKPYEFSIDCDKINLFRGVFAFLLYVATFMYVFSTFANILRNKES
Chain of C6.5 scFv phage (fd) (P03661 19-424): as above
Chain of C6.5 scFv phagemid (P69168 19-424): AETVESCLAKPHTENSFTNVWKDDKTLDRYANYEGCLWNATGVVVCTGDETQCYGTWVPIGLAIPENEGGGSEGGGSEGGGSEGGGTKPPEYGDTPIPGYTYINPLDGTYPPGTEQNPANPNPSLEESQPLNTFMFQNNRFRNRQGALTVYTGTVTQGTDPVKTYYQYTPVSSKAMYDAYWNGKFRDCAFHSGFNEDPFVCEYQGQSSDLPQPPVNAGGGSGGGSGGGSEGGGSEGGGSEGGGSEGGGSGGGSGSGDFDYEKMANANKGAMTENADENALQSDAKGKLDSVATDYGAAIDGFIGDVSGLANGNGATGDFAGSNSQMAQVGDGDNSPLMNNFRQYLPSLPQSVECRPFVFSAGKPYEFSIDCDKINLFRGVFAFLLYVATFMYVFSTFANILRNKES
Chain of C6.5 diabody phagemid (P69168 19-424): as above
Chain of anti-botulinum scFv phagemid (clone 3D12) (P69168 19-424): as above
Chain of F5-phagemid (monovalent) (P69168 19-424): as above
Chain of C6ML3-9 scFv phagemid (P69168 19-424): as above

With “C6.5 diabody phagemid (from UniProt P69168 19-424)” the Intracellular Phage Titer [1] was 4.5e+07 cfu, the Lysed cell fraction (titer of internalized phage) [1] was 1.7e+07 phage titer and the cells with internalized phage (confocal microscopy, SKBR3 cells) [1] was 20%. For the same substance, the input titer below which phage could not be recovered from within SKBR3 cells (input phage titer) [1] was 30000, the Cell Surface Phage Titer, 1st Wash [2] was 1.8e+08 cfu and the Cell Surface Phage Titer, 2nd Wash [2] was 1.2e+07 cfu. The Cell Surface Phage Titer, 3rd Wash [2] was 1.3e+06 cfu, the titer of cell surface bound phage, 1st glycine wash [3] was 1.8e+07 phage titer and the titer of cell surface bound phage, 2nd glycine wash [3] was 2.8e+06 phage titer.

For C6.5 phage (Example 2) (scFv), the Lysed cell fraction (titer of internalized phage) [1] was 6.8e+07 phage titer, the titer of cell surface bound phage, 1st glycine wash [3] was 1.2e+07 phage titer and the titer of cell surface bound phage, 2nd glycine wash [3] was 5.2e+06 phage titer.

Work on “C6.5 scFv phage (fd) (from UniProt P03661 19-424)” yielded an Intracellular Phage Titer [1] of 2.2e+08 cfu, an input titer below which phage could not be recovered from within SKBR3 cells (input phage titer) [1] of 30000 and a Cell Surface Phage Titer, 1st Wash [2] of 2.3e+08 cfu. For the same substance, the Cell Surface Phage Titer, 2nd Wash [2] was 6.2e+07 cfu and the Cell Surface Phage Titer, 3rd Wash [2] was 5.6e+06 cfu.

Work on “C6.5 scFv phagemid (from UniProt P69168 19-424)” yielded an Intracellular Phage Titer [1] of 5.2e+06 cfu, an enrichment of C6.5 scFv phagemid over wild type fd phage in the cell lysate, with trypsinization [1] of 209 fold and an enrichment of C6.5 scFv phagemid over wild type fd phage in the cell lysate, without trypsinization [1] of 6.1 fold. For the same substance, the input titer below which phagemid could not be recovered from within SKBR3 cells (input phage titer) [1] was 300000, the Cell Surface Phage Titer, 1st Wash [2] was 6e+07 cfu and the Cell Surface Phage Titer, 2nd Wash [2] was 9.6e+06 cfu. It also gave a Cell Surface Phage Titer, 3rd Wash [2] of 760000 cfu.

Work on C6.5cys scFv conjugated to liposomes yielded a Total uptake of scFv-conjugated liposomes by SKBR3 cells [1] of 3.4 and a share of the liposome uptake that was internalized (SKBR3 cells) [1] of 70%.

“C6ML3-9 scFv phagemid (from UniProt P69168 19-424)” gave an Intracellular Phage Titer [1] of 2.7e+07 cfu, an input titer below which phagemid could not be recovered from within SKBR3 cells (input phage titer) [1] of 3e+06 and a Cell Surface Phage Titer, 1st Wash [2] of 2.5e+08 cfu. For the same substance, the Cell Surface Phage Titer, 2nd Wash [2] was 1.4e+07 cfu and the Cell Surface Phage Titer, 3rd Wash [2] was 3.2e+06 cfu.

“F5-phagemid (monovalent) (from UniProt P69168 19-424) (scFv)” was tested, and the % of GFP positive cells (SKBR3, 48 hours; 0.78 µg reporter plasmid DNA) [1] was 0.64%, the % of GFP positive cells (SKBR3, 48 hours; 3.1 µg reporter plasmid DNA) [1] was 1.44% and the % of GFP positive cells (SKBR3, 48 hours; 15 µg reporter plasmid DNA) [1] was 3.84%. The GFP expressing SKBR3 cells after 48 hrs (FACS) [1] was 1.37%, the GFP expressing SKBR3 cells in a co-culture of SKBR3 and MCF7 cells (FACS) [1] was 1.91% and the GFP positive SKBR3 cells at the minimal phage concentration [1] was 0.12%. For the same substance, the maximum percentage of GFP positive SKBR3 cells in the time course [1] was 4.5% and the lowest phage concentration at which binding could be detected [4] was 1e+10 cfu/ml.

Substance “anti-botulinum scFv phagemid (clone 3D12) (from UniProt P69168 19-424)” has an Intracellular Phage Titer [1] of 1.5e+06 cfu, a Lysed cell fraction (titer of internalized phage) [1] of 600000 phage titer and a titer of cell surface bound phage, 1st glycine wash [5] of 600000 phage titer. It also gave a titer of cell surface bound phage, 2nd glycine wash [5] of 100000 phage titer, a Cell Surface Phage Titer, 1st Wash [6] of 2.8e+07 cfu and a Cell Surface Phage Titer, 2nd Wash [6] of 3.6e+06 cfu. For the same substance, the Cell Surface Phage Titer, 3rd Wash [6] was 280000 cfu.

Substance “fd-F5 phage (multivalent) (from UniProt P03661 19-424) (scFv)” has a % of GFP positive cells (SKBR3, 48 hours; 1.25 ng reporter plasmid DNA) [1] of 0.57%, a % of GFP positive cells (SKBR3, 48 hours; 2.25 ng reporter plasmid DNA) [1] of 0.87% and a % of GFP positive cells (SKBR3, 48 hours; 5 ng reporter plasmid DNA) [1] of 1.69%. The lowest phage concentration at which binding could be detected [4] was 1e+08 cfu/ml.

native anti-ErbB2 F5 scFv was tested, and the pKd [7] was 6.80.
